# Laboratory results taken from PMC9864903, “Imaging of the Glucose-Dependent Insulinotropic Polypeptide Receptor Using a Novel Radiolabeled Peptide Rationally Designed Based on Endogenous GIP and Synthetic Exendin-4 Sequences” (Pharmaceuticals, 2022).
# Entries after “also recorded” stand apart in the source; their conditions may differ.
# Key:
# [1] = pharmacokinetics in rats after subcutaneous administration; type: in vivo; conditions: rat
# Source text: The potency of the peptide conjugate in terms of EC50 was studied using C803-GIP and C803-GIP loaded with a stable isotope of gallium (Ga-C803-GIP) in HEK293 cells transfected with the GIPR from human, monkey (NHP), and rat species. In addition, the cross-reactivity was studied in HEK293 cells transfected with the GLP1-R and GCGR. […] In contrast, the EC50 for the rat GIPR was one order of magnitude poorer. […] The pharmacokinetic properties were investigated in vivo in rats. […] The average plasma concentration calculated to the infinity (AUCinf) was 1370 h*ng/mL.
# Figure 1 Plasma concentration of Ga-C803-GIP measured at 3, 6, 9.6, 19.8, 30, 60, 120, and 240 min post subcutaneous administration in rats (n = 3). The error bars are not seen due to the low SD values.
# [2] = chemical stability of Ga-C803-GIP at ambient temperature and pH 4.5; type: physicochemical; conditions: for at least one week at ambient temperature and pH 4.5
# Source text: C803-GIP has a sequence partially similar to that of hGIP(1-30), wherein L-Alanine at position 2 was exchanged to D-Alanine, Methionine at position 14 was exchanged to Leucine, Aspartic acid at position 21 was exchanged to Glutamic acid, Valine at position 23 was exchanged to Isoleucine, Asparagine at position 24 was exchanged to Glutamic acid, Leucine at position 27 was exchanged to Lysine, and both Glutamine at position 29 and Lysine at position 30 were exchanged to Glycine. The sequence was amended with Histidine (31), Proline (32), and seven more residues corresponding to those found in exendin-4 (Serine(33)-Glycine(34)-Alanine(35)-Proline(36)-Proline(37)-Proline(38)-Serine(39)). The peptide sequence was conjugated via terminal Serine(39) to a DOTA chelator moiety functionalized with a vinyl sulfone linker and cysteine amide (Table 1). C803-GIP was loaded with stable isotopes of gallium to yield Ga-C803-GIP for the subsequent investigation of the stability and biological activity. Ga-C803-GIP was stable with a purity of over 95% for at least one week at ambient temperature and pH 4.5.
# GIPR = conditions: affinity for the GIPR; cited from earlier work
# Source text: This effect may be due to the exchange of Aib(2) to A(2), L(10) to Y(10), R(16) to K(16), E(20) to Q(20), L(27) to K(27), K(31) to H(31), and the addition of the C-terminal tail ((32-39); […]). [^68Ga]Ga-C803-GIP was furthermore evaluated for its affinity, internalization, and binding specificity towards the GIPR.
# [3] = dynamic PET/CT organ distribution in pig; type: in vivo; conditions: infusion of GIP(1-42) 20 pmol/kg/min
# Source text: An anesthetized pig (25 kg) was positioned to include the abdomen with pancreas in the center of the 25 cm axial field of view of a Discovery MI PET/CT scanner (GE Healthcare, MI, USA) by assistance of a low-dose CT scout view (140 kV, 10 mAs). The details of the animal handling, preparation, and anesthesia have been previously described.
# Attenuation correction was acquired by a 140 kV, 10–80 mA CT examination. The administration of [^68Ga]Ga-C803-GIP (17.3 MBq, corresponding to approximately 2.5 μg peptide or 0.10 μg/kg) was made upon the start of the baseline dynamic scan lasting for 90 min (30 frames; […]). The dynamic scan was followed by a static scan over the brain from 90–120 min post administration. A second PET investigation was performed after an additional 2 h to allow the radioactivity from the first scan to fade from the circulation by decay and excretion.
# The GIP(1-42) infusion was continued until the end of the PET scan. Finally, after the last PET scan, a contrast-enhanced CT scan was performed to assist delineation of the tissues, e.g., the pancreas.
# Segmentation of the tissues of interest (descending aorta, pancreas, spleen, kidney, liver, and muscle) was performed in PMOD (PMOD Technologies), and time–activity curves were expressed as SUV as detailed above.
molecule,measurement,setting,value
CC[C@H](C)[C@H](NC(=O)[C@H](CO)NC(=O)[C@H](Cc1ccc(O)cc1)NC(=O)[C@H](CC(=O)O)NC(=O)[C@H](CO)NC(=O)[C@@H](NC(=O)[C@H](Cc1ccccc1)NC(=O)[C@@H](NC(=O)CNC(=O)[C@H](CCC(=O)O)NC(=O)[C@@H](C)NC(=O)[C@@H](N)Cc1ccc(O)cc1)[C@@H](C)O)[C@@H](C)CC)C(=O)N[C@@H](C)C(=O)N[C@@H](CC(C)C)C(=O)N[C@@H](CC(=O)O)C(=O)N[C@@H](CCCCN)C(=O)N[C@H](C(=O)N[C@@H](Cc1c[nH]cn1)C(=O)N[C@@H](CCC(N)=O)C(=O)N[C@@H](CCC(N)=O)C(=O)N[C@@H](CCC(=O)O)C(=O)N[C@@H](Cc1ccccc1)C(=O)N[C@H](C(=O)N[C@@H](CCC(=O)O)C(=O)N[C@@H](Cc1c[nH]c2ccccc12)C(=O)N[C@@H](CC(C)C)C(=O)N[C@@H](CCCCN)C(=O)N[C@@H](C)C(=O)NCC(=O)NCC(=O)N[C@@H](Cc1c[nH]cn1)C(=O)N1CCC[C@H]1C(=O)N[C@@H](CO)C(=O)NCC(=O)N[C@@H](C)C(=O)N1CCC[C@H]1C(=O)N1CCC[C@H]1C(=O)N1CCC[C@H]1C(=O)N[C@@H](CO)C(=O)N[C@@H](CSCCS(=O)(=O)CCN1CCN(CC(=O)O)CCN(CC(=O)O)CCN(CC(=O)O)CC1)C(N)=O)[C@@H](C)CC)[C@@H](C)CC [Ga-C803-GIP],half-life,"[1]; plasma, sc, 1 mg/kg, n = 3",22.8 min
same,AUCinf,"[1]; 1 mg/kg, n = 3",1370 ng·h/mL
same,plasma clearance (CL),"[1]; 1 mg/kg, n = 3",12.2 mL/min/kg
same,plasma concentration at the 240 min time point,"[1]; n = 3, 240 min post administration",below the limit of detection
same,purity on storage (stability),[2],over 95%
[Lys37(111In-DTPA)]N-acetyl-GIP1-42,IC50,GIPR,4.8 µM
"YAEGTFISDYSIAMDKIHQQDFVNWLLAQKGKKNDWKHNITQ [GIP(1-42), reference compound]",effect of GIP(1-42) on uptake of [68Ga]Ga-C803-GIP in tissues,[3],did not reduce the uptake; also recorded: did not affect the uptake pattern
